# Test results from article PMC2265480, “Identification of Synaptic Targets of Drosophila Pumilio”.
# T1: GST-Pum (Pumilio RNA-binding domain) (Drosophila, UniProt P25822 1091-1533)
# T1 sequence: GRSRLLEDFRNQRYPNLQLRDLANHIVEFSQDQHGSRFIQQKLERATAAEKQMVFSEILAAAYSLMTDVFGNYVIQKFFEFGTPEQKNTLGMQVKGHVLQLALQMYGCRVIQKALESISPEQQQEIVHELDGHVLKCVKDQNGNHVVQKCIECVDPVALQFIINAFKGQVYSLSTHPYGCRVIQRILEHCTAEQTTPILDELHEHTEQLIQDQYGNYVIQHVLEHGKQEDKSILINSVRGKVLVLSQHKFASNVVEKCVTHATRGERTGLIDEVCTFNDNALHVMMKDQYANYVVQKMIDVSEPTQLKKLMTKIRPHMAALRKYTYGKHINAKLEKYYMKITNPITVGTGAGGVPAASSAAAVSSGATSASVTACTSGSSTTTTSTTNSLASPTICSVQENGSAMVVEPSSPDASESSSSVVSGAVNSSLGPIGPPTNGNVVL
# T2: GST-Pum (Pumilio RNA-binding domain) (Drosophila) (UniProt P25822)
# T2 sequence: T1 sequence
# Columns and labels:
# [1] = target: T1, GST-Pum (Pumilio RNA-binding domain); test: EMSA; conditions: 5:1 protein:RNA, 10 mM Hepes/KOH pH 7.4, 50 mM KCl, 3 mM MgCl2, 1 mM EDTA, 2 mM DTT, 0.1 mg/ml BSA, 0.1 mg/ml yeast tRNA, 0.01% Tween-20, 0.2 U RNasin, 10% glycerol, 10 ul …
# [2] = target: T2, GST-Pum (Pumilio RNA-binding domain) (Drosophila); test: EMSA; conditions: 5:1 protein:RNA (50 fmol:10 fmol); one complex; 10 mM Hepes/KOH pH 7.4, 50 mM KCl, 3 mM MgCl2, 1 mM EDTA, 2 mM DTT, 0.1 mg/ml BSA, 0.1 mg/ml yeast tRNA, 0.01% Tween-20, 0.2 U RNasin, 10% glycerol, 10 ul …
# [3] = target: T1, GST-Pum (Pumilio RNA-binding domain); test: EMSA; up to 50 fmol protein:10 fmol RNA; 10 mM Hepes/KOH pH 7.4, 50 mM KCl, 3 mM MgCl2, 1 mM EDTA, 2 mM DTT, 0.1 mg/ml BSA, 0.1 mg/ml yeast tRNA, 0.01% Tween-20, 0.2 U RNasin, 10% glycerol, 10 ul, 20 min room temperature; 5% native gel in 1x TBE; conditions: protein: recombinant; tags: N-terminal GST; label: radiolabel
molecule,measurement,setting,value
AP-1gamma 3'UTR 85-191,binding signal,[1]; one complex,21.8 % bound
AUUAUUUUGUUGUCGAAAAUUGUACAUAAGCC [hb NRE2],binding signal,[2],67.9 % bound
Ace 3'UTR 722-1095,binding signal,[1],33 % bound
Csp 3'UTR 1218-1545,binding signal,[1]; 2 sites,57.2 % bound
EP2237 3'UTR 340-514,binding signal,[1],20.5 % bound
Gad1 3'UTR 704-973,binding signal,[1]; 2 sites,35.9 % bound
dlg1 (isoforms A and D) 3'UTR 1485-1539,binding signal,[1]; one complex,56.9 % bound
dlg1 isoform C 3'UTR 744-829,binding signal,[1]; not bound even at high molar ratio,0 % bound
mam 3'UTR 642-1110,binding signal,[1]; 2 sites,73.8 % bound
shn 3'UTR 809-1013,binding signal,[1]; 2 sites,59 % bound
GGUAGUGCAUACAACUUCCUU (ssRNA) [CRS random control RNA],binding result,[3],no binding
